# Data taken from US20130289253A1.
# Several values for one entry are separate records, joined by “and”; a condition that tells them apart may be missing. Identical values can stand only once. Like-named read-outs stand apart in the source and are kept apart here.
# Columns and labels:
# control (Fig. 49) [1] = biological target: control (Fig. 49)
# control (Fig. 49) [2] = biological target: control (Fig. 49); remark: listed apart in the source
substance,measurement,setting,value
DR4 2×His DTB-HA306-318 complexes (DTB-streptactin purified monomers) (from UniProt P01903 26-216) (peptide-MHC),% of cells in Q2 (multimer+ CD4+),control (Fig. 49) [1],0.535% and 0.421%
same,% of cells in Q2 (multimer+ CD4+),control (Fig. 49) [2],0.985% and 0.623%
